Experiments:
Unr CSD78 (A756-K922) = molecular target: T1, Unr CSD78 (A756-K922) (Drosophila, UniProt B7Z0E2 756-922); test: NMR titration
T1 sequence (looked up): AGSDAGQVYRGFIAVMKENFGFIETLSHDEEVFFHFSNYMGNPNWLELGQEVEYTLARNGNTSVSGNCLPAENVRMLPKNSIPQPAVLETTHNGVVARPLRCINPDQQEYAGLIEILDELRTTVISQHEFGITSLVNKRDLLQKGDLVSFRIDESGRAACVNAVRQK

Unr CSD789 (A756-D990) = molecular target: T2, Unr CSD789 (A756-D990) (Drosophila, UniProt B7Z0E2 756-990); test: NMR titration
T2 sequence (looked up): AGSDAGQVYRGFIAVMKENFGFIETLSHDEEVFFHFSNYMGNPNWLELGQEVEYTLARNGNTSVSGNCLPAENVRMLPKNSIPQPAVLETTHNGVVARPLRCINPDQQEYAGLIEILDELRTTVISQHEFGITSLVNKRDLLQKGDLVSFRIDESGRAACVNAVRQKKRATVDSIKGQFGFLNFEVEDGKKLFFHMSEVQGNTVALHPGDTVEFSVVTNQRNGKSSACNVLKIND

binding result (Unr CSD78 (A756-K922)): binds
binding result (Unr CSD789 (A756-D990)): binds
B1: pAbp RRM3 (G176-A263) (domain or fragment)
chain: not shown

Source: article PMC9976900 (Nucleic Acids Research, 2022)
